According to publication PMC6133988, “Characterization of Arabidopsis thaliana Hydroxyphenylpyruvate Reductases in the Tyrosine Conversion Pathway” (Frontiers in Plant Science, 2018):

Legend:
Test in all cases: LC-MRM-MS product quantification, non-linear regression
Format in all cases: biochemical, Arabidopsis thaliana
[1] = substrate: O=C(O)C(=O)CO; settings: NADH (2 mM), 100 mM potassium phosphate pH 7.0, 4 mM DTT, 40 μM ascorbate, 30 °C
Excerpt: LC-MRM-MS product quantification, non-linear regression on HPR1

[2] = substrate: O=C(O)C(=O)CO; settings: NADPH (2 mM), 100 mM potassium phosphate pH 7.0, 4 mM DTT, 40 μM ascorbate, 30 °C
Excerpt: (§1) LC-MRM-MS product quantification, non-linear regression on HPPR2

[3] = substrate: O=C(O)C(=O)Cc1ccc(O)cc1; settings: NADPH (2 mM), 100 mM potassium phosphate pH 7.0, 4 mM DTT, 40 μM ascorbate, 30 °C
Excerpt: as §1

[4] = substrate: O=C(O)C(=O)Cc1ccccc1; settings: NADPH (2 mM), 100 mM potassium phosphate pH 7.0, 4 mM DTT, 40 μM ascorbate, 30 °C
Excerpt: as §1

[5] = substrate: O=C(O)C(=O)CO; settings: NADPH (2 mM), 100 mM potassium phosphate pH 7.0, 4 mM DTT, 40 μM ascorbate, 30 °C; remark: listed apart in the source
Excerpt: (§2) LC-MRM-MS product quantification, non-linear regression on HPPR3

[6] = substrate: O=C(O)C(=O)Cc1ccc(O)cc1; settings: NADPH (2 mM), 100 mM potassium phosphate pH 7.0, 4 mM DTT, 40 μM ascorbate, 30 °C; remark: listed apart in the source
Excerpt: as §2

[7] = substrate: O=C(O)C(=O)Cc1ccccc1; settings: NADPH (2 mM), 100 mM potassium phosphate pH 7.0, 4 mM DTT, 40 μM ascorbate, 30 °C; remark: listed apart in the source
Excerpt: as §2

B1: HPR1 (Arabidopsis thaliana) (protein)
chain: MAKPVSIEVYNPNGKYRVVSTKPMPGTRWINLLVDQGCRVEICHLKKTILSVEDIIDLIGDKCDGVIGQLTEDWGETLFSALSKAGGKAFSNMAVGYNNVDVEAANKYGIAVGNTPGVLTETTAELAASLSLAAARRIVEADEFMRGGLYEGWLPHLFVGNLLKGQTVGVIGAGRIGSAYARMMVEGFKMNLIYFDLYQSTRLEKFVTAYGQFLKANGEQPVTWKRASSMEEVLREADLISLHPVLDKTTYHLVNKERLAMMKKEAILVNCSRGPVIDEAALVEHLKENPMFRVGLDVFEEEPFMKPGLADTKNAIVVPHIASASKWTREGMATLAALNVLGRVKGYPIWHDPNRVDPFLNENASPPNASPSIVNSKALGLPVSKL
notes: coding region from Arabidopsis cDNA in pDEST17, His-tagged, E. coli, Ni-NTA purified
B1 gave a Km [1] of 1530 ± 720 µM, a kcat [1] of 3.46 ± 0.0838 s⁻¹ and a kcat/Km [1] of 2570 ± 1040 M⁻¹ s⁻¹.

B2: HPPR2 (Arabidopsis thaliana) (protein)
chain: MESIGVLMMCPMSSYLENELEKRFNLLRFWTSPEKSVLLETHRNSIRAVVGNASAGADAQLISDLPNLEIVSSFSVGLDKIDLGKCKEKGIRVTNTPDVLTEDVADLAIGLILALLRRLCECDRYVRSGKWKQGEFQLTTKFSGKSVGIIGLGRIGTAIAKRAEAFSCPINYYSRTIKPDVAYKYYPTVVDLAQNSDILVVACPLTEQTRHIVDRQVMDALGAKGVLINIGRGPHVDEQELIKALTEGRLGGAALDVFEQEPHVPEELFGLENVVLLPHVGSGTVETRNAMADLVVGNLEAHFSGKSLLTPVV
notes: as for B1
B2 was tested, and the Km [2] was 1050 ± 390 µM, the kcat [2] was 0.926 ± 0.0788 s⁻¹ and the kcat/Km [2] was 950 ± 296 M⁻¹ s⁻¹. It also gave a Km [3] of 800 ± 160 µM, a kcat [3] of 0.122 ± 0.0085 s⁻¹ and a kcat/Km [3] of 157 ± 36.3 M⁻¹ s⁻¹. It also gave a Km [4] of 3700 ± 750 µM, a kcat [4] of 0.0333 ± 0.00983 s⁻¹ and a kcat/Km [4] of 9 ± 1.17 M⁻¹ s⁻¹.

B3: HPPR3 (Arabidopsis thaliana) (protein)
chain: MAESSEPPVVLLHRPPSLTFMDEILTREFRTLITDTSSSESLPSFFPRHASSARAFVISGRLPVTDELLSHLPSLQILVCTSVGIDHIDLAACKRRGIVITNAGNAFSDDVADCAVGLLISVLRRIPAADRYVRSGNWAKFGDFQLGSKVSGKRVGIVGLGSIGSFVAKRLESFGCVISYNSRSQKQSSPYRYYSDILSLAENNDVLVLCCSLTDETHHIVNREVMELLGKDGVVINVGRGKLIDEKEMVKCLVDGVIGGAGLDVFENEPAVPQELFGLDNVVLSPHFAVATPGSLDNVAQIALANLKAFFSNRPLLSPVQLD
notes: as for B1
In the case of B3, the Km [5] is reported as 3570 ± 480 µM, the kcat [5] is reported as 0.0518 ± 0.0035 s⁻¹ and the kcat/Km [5] is reported as 14.8 ± 2.83 M⁻¹ s⁻¹. It also gave a Km [6] of 370 ± 60 µM, a kcat [6] of 0.285 ± 0.0158 s⁻¹ and a kcat/Km [6] of 785 ± 87.3 M⁻¹ s⁻¹. For the same protein, the Km [7] was 1520 ± 50 µM, the kcat [7] was 0.611 ± 0.0692 s⁻¹ and the kcat/Km [7] was 402 ± 49.2 M⁻¹ s⁻¹.
